Laboratory results from article PMC10397247.
Blank lines part the entries; values can stand above or below the binder they belong to.

Legend:
4H918-bN = biological target: T1, 4H918-bN; assay: two-hybrid library CCNG1;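 note: natural log of median RNA to DNA barcode read ratio; higher means stronger binding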
T1 chain: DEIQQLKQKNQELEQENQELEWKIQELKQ

4H607-bN = biological target: T2, 4H607-bN; assay: two-hybrid library CCNG1;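 note: natural log of median RNA to DNA barcode read ratio; higher means stronger binding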
T2 chain: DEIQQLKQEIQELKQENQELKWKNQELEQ

4H967-bN = biological target: T3, 4H967-bN; assay: two-hybrid library CCNG1;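 note: natural log of median RNA to DNA barcode read ratio; higher means stronger binding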
T3 chain: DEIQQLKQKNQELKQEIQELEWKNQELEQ

4H908-bN = biological target: T4, 4H908-bN; assay: two-hybrid library CCNG1;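 note: natural log of median RNA to DNA barcode read ratio; higher means stronger binding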
T4 chain: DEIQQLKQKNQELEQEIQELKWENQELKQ

4H687-bN = biological target: T5, 4H687-bN; assay: two-hybrid library CCNG1;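 note: natural log of median RNA to DNA barcode read ratio; higher means stronger binding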
T5 chain: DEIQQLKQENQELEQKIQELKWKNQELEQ

4H953-bN = biological target: T6, 4H953-bN; assay: two-hybrid library CCNG1;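 note: natural log of median RNA to DNA barcode read ratio; higher means stronger binding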
T6 chain: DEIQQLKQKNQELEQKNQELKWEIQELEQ

4H72-bN = biological target: T7, 4H72-bN; assay: two-hybrid library CCNG1
T7 chain: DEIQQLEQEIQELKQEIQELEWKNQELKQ

4H797-bN = biological target: T8, 4H797-bN; assay: two-hybrid library CCNG1
T8 chain: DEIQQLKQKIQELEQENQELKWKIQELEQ

P8SHb = biological target: T9, P8SHb; assay: two-hybrid library CCNG1
T9 chain: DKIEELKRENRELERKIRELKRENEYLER

4H883-bN = biological target: T10, 4H883-bN; assay: two-hybrid library CCNG1
T10 chain: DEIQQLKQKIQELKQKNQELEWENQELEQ

4H717-bN = biological target: T11, 4H717-bN; assay: two-hybrid library CCNG1
T11 chain: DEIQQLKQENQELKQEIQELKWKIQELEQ

4H754-bN = biological target: T12, 4H754-bN; assay: two-hybrid library CCNG1
T12 chain: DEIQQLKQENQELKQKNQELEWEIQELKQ

O9 = biological target: T13, O9; assay: two-hybrid library CC0; conditions: mean of both orientations
T13 chain: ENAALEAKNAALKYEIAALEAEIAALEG

O6 = biological target: T14, O6; assay: two-hybrid library CC0; conditions: mean of both orientations
T14 chain: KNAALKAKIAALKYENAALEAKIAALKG

O8 = biological target: T15, O8; assay: two-hybrid library CC0; conditions: mean of both orientations
T15 chain: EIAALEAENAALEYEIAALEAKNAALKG

O7 = biological target: T16, O7; assay: two-hybrid library CC0; conditions: mean of both orientations
T16 chain: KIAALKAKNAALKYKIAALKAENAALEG

4H3041-bH = biological target: T17, 4H3041-bH; assay: two-hybrid library CCNG1
T17 chain: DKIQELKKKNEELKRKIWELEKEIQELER

4H3297-bH = biological target: T18, 4H3297-bH; assay: two-hybrid library CCNG1
T18 chain: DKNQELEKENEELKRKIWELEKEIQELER

4H3364-bH = biological target: T19, 4H3364-bH; assay: two-hybrid library CCNG1
T19 chain: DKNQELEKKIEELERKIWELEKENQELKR

4H949-bH = biological target: T20, 4H949-bH; assay: two-hybrid library CCNG1
T20 chain: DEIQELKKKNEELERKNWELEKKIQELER

4H796-bH = biological target: T21, 4H796-bH; assay: two-hybrid library CCNG1
T21 chain: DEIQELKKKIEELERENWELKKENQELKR

4H349-bH = biological target: T22, 4H349-bH; assay: two-hybrid library CCNG1
T22 chain: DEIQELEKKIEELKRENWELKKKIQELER

4H2931-bH = biological target: T23, 4H2931-bH; assay: two-hybrid library CCNG1
T23 chain: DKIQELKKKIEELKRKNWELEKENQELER

4H730-bH = biological target: T24, 4H730-bH; assay: two-hybrid library CCNG1
T24 chain: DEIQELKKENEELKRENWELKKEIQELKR

4H56-bH = biological target: T25, 4H56-bH; assay: two-hybrid library CCNG1
T25 chain: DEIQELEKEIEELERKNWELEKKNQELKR

4H3381-bH = biological target: T26, 4H3381-bH; assay: two-hybrid library CCNG1
T26 chain: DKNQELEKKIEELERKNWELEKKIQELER

4H3974-bH = biological target: T27, 4H3974-bH; assay: two-hybrid library CCNG1
T27 chain: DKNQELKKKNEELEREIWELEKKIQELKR

4H850-bH = biological target: T28, 4H850-bH; assay: two-hybrid library CCNG1
T28 chain: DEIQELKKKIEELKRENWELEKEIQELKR

4H619-bH = biological target: T29, 4H619-bH; assay: two-hybrid library CCNG1
T29 chain: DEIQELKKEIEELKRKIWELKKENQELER

4H3638-bH = biological target: T30, 4H3638-bH; assay: two-hybrid library CCNG1
T30 chain: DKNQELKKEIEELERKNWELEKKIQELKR

4H570-bH = biological target: T31, 4H570-bH; assay: two-hybrid library CCNG1
T31 chain: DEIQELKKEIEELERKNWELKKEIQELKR

4H3817-bH = biological target: T32, 4H3817-bH; assay: two-hybrid library CCNG1
T32 chain: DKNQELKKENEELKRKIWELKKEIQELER

4H584-bH = biological target: T33, 4H584-bH; assay: two-hybrid library CCNG1
T33 chain: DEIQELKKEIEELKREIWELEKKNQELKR

4H906-bH = biological target: T34, 4H906-bH; assay: two-hybrid library CCNG1
T34 chain: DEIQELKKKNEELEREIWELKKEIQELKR

P9SHb = biological target: T35, P9SHb; assay: two-hybrid library CCNG1
T35 chain: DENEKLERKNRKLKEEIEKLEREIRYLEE

interaction score (4H3041-bH): -0.279
interaction score (4H3297-bH): 0.571
interaction score (4H3364-bH): -0.507
interaction score (4H949-bH): -0.384
interaction score (4H796-bH): -0.865
interaction score (4H349-bH): -0.83
interaction score (4H2931-bH): -0.492
interaction score (4H730-bH): -0.532
interaction score (4H56-bH): -0.623
interaction score (4H3381-bH): -0.508
B3: 4H2931-bH (peptide)
chain: DKIQELKKKIEELKRKNWELEKENQELER

interaction score (4H3974-bH): -0.916
interaction score (4H850-bH): 1.04
interaction score (4H619-bH): -1.47
interaction score (4H3638-bH): -1.34
interaction score (4H570-bH): -0.4
interaction score (4H3817-bH): -0.0824
interaction score (4H584-bH): -0.722
interaction score (4H906-bH): -0.762
B4: 4H3638-bH (peptide)
chain: DKNQELKKEIEELERKNWELEKKIQELKR

interaction score (P8SHb): -0.644
interaction score (P9SHb): 0.191
B5: P8SHb (peptide)
chain: DKIEELKRENRELERKIRELKRENEYLER

Continued, binder first:

B1: 4H607-bN (peptide)
chain: DEIQQLKQEIQELKQENQELKWKNQELEQ
interaction score (4H918-bN): 0.0461
interaction score (4H607-bN): 0.145
interaction score (4H967-bN): -0.227
interaction score (4H908-bN): -0.294
interaction score (4H687-bN): -1.48
interaction score (4H953-bN): -1.56
interaction score (4H72-bN): -1.65
interaction score (4H797-bN): -0.52
interaction score (P8SHb): -1.61
interaction score (4H883-bN): -0.644
interaction score (4H717-bN): -1.11
interaction score (4H754-bN): -1.32

B2: O6 (peptide)
chain: KNAALKAKIAALKYENAALEAKIAALKG
interaction score (O9): -2.41
interaction score (O6): -2.7
interaction score (O8): -1.78
interaction score (O7): -2.72
